Source: the NTF2 design screens of Basanta et al. (2020)

Assay: protease stability score; higher = more stable; yeast display proteolysis, trypsin and chymotrypsin;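 also: log10 excess protease needed over predicted unfolded state with 0 meaning unfolded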

| Sequence | protease stability score |
| --- | --- |
| DEEEVQKILKTMNELLKHNDFDSLARQADPNAEFHVGDKRVHGREQVQTMLQDLRERIDHVEIRSMTAQGDKFKLDFLENVNGRRTRVTAHADVHNGRIKSVEYRTS | -0.619 |
| DEEEVRELAERFAENLERGDFHKVANQADPNARMQIGDTRYHGREELQRFLKELMERVDHLQIRSVKVRGNHVTIRMHVHYNGKSVDMHMTFHAKNGKIKHVEFNPKDFDKARR | 0.813 |
| DEEEVRKVLERLQKAVEKGNADEIAKLLKDDGEFVLIDERYKGQEDAKQVIKELQDKGFEFHTEEIQVKGGTAEVKTVWRVGDRELHLKVRYVVRGDKVDQVHAQWSKDAKEDLKKG | 0.691 |
| DEEEVRRIAHEFLKAVERGDEKRVRQLADKDVRAVVGDKRIHGKKDLAKLVKTLRDRADQFKVRDLEVQGNHVEVDLVMIVNGQSVDMSINIVVHNGTIHHMEIRVTDEDRMREVNS | -0.053 |
| DEEEVSRILKKVLTAVRKNDPDTLMRLADKNARFHYGDRTYRGREQARRWMEDVRTHADHARINSFTVTGNKARADIRFDINGEERRVDMVIVVHNGKIHDLVVEDR | 1.3 |
| DEEEVTKVVKKLRENDRDSQRDLFDKDVRVKIGDKNVHGREQAVTFWDRFLNSVDRYHVDSVEIDGDQIKIDARAVVNGRKVRYVVVYTVRNGRIKEASVHFTNEDEEKEFEKNVG | 1.28 |
| DEEEWKELNKEISRIDQHGDERDLARLVDENAKIQIGDKTIRGREDLEKQFDRLRDRFDHIQVQHVENQGDKIRVEVVQRHNGRDETHVKTVKLENGRIKHMEMQHK | -0.186 |
| DEEFAKTVVQMFRNWVHGDPSDMTRMLDENAHVVIGDTTLRGRDDVSRYVNELHDHMRFHVDRLSEENRPGRAVVKAQNNNVHNGEPTTNRAVVEVNVKNGKAQDIQYNSDK | -0.36 |
| DEEFEQNAKEWLTAIKENDPDQVRDLVDEDVRFNVGNKKVHGRERWKHLVETENKELRVEYESIDVKVNGDKAEFNATVTVEVNGKPAHFHVNMKMQAHNGRIKHVSQNMSHEDQEKFRK | -0.118 |
| DEEFLKRLVKILRTGDPDKLVNNFDKNARLEYGDKTVEGKNRIKKFMKDLHDRVDHFDIESVTLEPNHLDFTMKAQINGRDVKVRVRVEVHNGKIKHATYKYTNEDQERNMKHVKS | 0.561 |
| DEEFLRLIEEFWRAVKQNDEERLKHLLDENAKVKVGDKRLRGHEQVAKSIVDDQREMRIEMRIHKVEVDGNKVDVTYVVVFNVNGRPVSDSVRVIFRAKNGRIQMIEVRVDPDSAREQKS | 1.37 |
| DEEFNKEVKKMFDNLEKGNEEEYLRMLDENAKAQYGDHDVRGREELKKELHRQRKEIRVKYQSVDIRMHNGELSVRFRAEVVVNGRPHTVERTQSAKVQNGRVQSMKLKIDEEQKERLEG | -0.251 |
| DEEFNKVLEEALHAMHKGDPDKLNKNLDEDAKIKYGDKTVHGREDATKLLETIVKNARIQIDSFRVTSRGEKAVADVRLRYRINGKPIDVKMIIYAKNDNGRIKEVEYKIDPDELRKVEG | 1.28 |
| DEEFQTEAEKMFTNQRNNNEDHLKDQFDKDAKVQVGDKEFHGTERYEETFRTQMEHMRYDIDSFTARVHGEDLDVDVSFQFESNGKPDRNRAKIIATYHNGRIKHLRVDQDQ | 0.073 |
| DEEFRHKVAKALQSNNEHQLHELMDKDAKMTIGDKTVHGREEIHRVLRRLREQADHWHVSRFKIHNGKIVADVQVHINGQTYHMTITAFARGDRIERLEYTVRDEDLLRKIQRWLG | 1.97 |
| DEEFRHQVKQFLRAETRGNEETLKEQMDKDATFEVGDRVINGHEKYASDQHERRKEIRVEIKSMEVDAQGNTADYEIDFVEHFDGKPHRRKVRASIRVHNGRVKEIVEKDSQ | -0.184 |
| DEEFVRTVVKAHEENDEKKFNDLMDKDVKVDIGNKELRGRDQARKQLHHLRDKIDHYHVKSVTFKGNRIQIKAEFQVDGRRISAIYQQDVHNGHITSFRVSVTDPRDKHKLDEIVG | 0.151 |
| DEEHAEELMKRWMEVVKKGDKDTVKELYKPNGTWRNVDEEHQGVEQVQKMMKKIQDVGVEFQVRKAKVEGDRVTVVYDVRAGDVEVTFTVQMDVDGGRVELVQVKVDEDAKKAVKTG | 0.034 |
| DEEHAESVKTLFKNLRTNNEDEVEKLVDPNARMKYGDKQVHGRDEIKHMIQRLKDELHIEMDVKRMNVHNGQADLKFDITVVRNGKPDTAKANVRVQFSNGRIHDFTVQLNK | 0.347 |
| DEEHAHEMLKVVKVLIEGDPDQAHDMVDPNARFKVGDQTFSGRESFRNHVRHTNEESSLHLKSLDAQDHGDKVTIKVEFVRDTNGNPRHMRLEVRARLHNGRVTHAEFEDRK | -0.001 |
| DEEHAKRINENIKHGNWDELVKQFDENAKLVIGDKEYHGREEIKKAMDLFKKHADHFEIKSYDNQGEKMSATYVIQVNGKRATVKMRVTFQGDKVKRYELHATSEHNERILKEAIE | 1.12 |
| DEEHARELVENFKRNNWQEFEKMADKDVRAHVGDWNVHGRETFSRMMKHLVDQIDHISVDSVDVDEDTVEIHFSFDINGQDVTAVLRVELHNGKIKSMELDARDENARDVLRKVWR | 0.099 |
| DEEHARTFMEEWQKAVQKGDHKRAQEIYKPNVEWVAGDKQTQGTDVVREMLEKAQKMGVEFQVRRAEVEGNKVRFQYDVRHGNETVTFHVEVTVQGGKIDRVQVKFDEKAQKVQKEG | 1.07 |
| DEEHDEKVARSVARNITHGNEKSLRKQLPEDARVVYGDKTYHGRERAANVAKEFDERADHNRVDDLRVQNGRAELIFIVNVDGKNVRAVMIVDVHNGKAKLVMIKWTNPDDQRDLEK | 0.159 |
| DEEHELDMARKMFEAVKQGDEEEVQRNAPPDVRMEIGDRTYHGREQVRKAAKEFQKRVDHMQLDSVKLHNGDVHAKVILNINGKNNDVVVQIHIDNGRITELRFKTS | -0.06 |

| Sequence | protease stability score |
| --- | --- |
| DEEHIEEVQRRFISAFKDGDEDQMQRQMDPNVKLVIGDTTIHGRESAAKSLANIVRKVDHVDVESYEVRGNQASMIMRVEINGKDDRLDFQIEIHNGHIKRLEIQSS | 0.692 |
| DEEHITNVVKKMVNALRTGDPDTARELADPNVTAEYGDKEIRGREEVSKMVKLLHKQADHVTVKDVKVTNGHMEVRRRQHVNGKEIQMTLEARVHNGKIQEMRVHKK | -0.305 |
| DEEHKAKDAARRMQEVARRNDPTQAKEMIPPDAKVRVGDKDVHGREQVVTLFKKIADQADHLDIQVSSVDIQGDRAVVVFNLRYTINGQDRRNRVVVIFRDHNGHVMILEVQEQ | 0.514 |
| DEEHLKRVNETVMDIVKNNDPNQLREMVDPNVKVDVGDQRVHGRDKAAEVVKEWEKHVDRVTIRHVSVHNGRVRVVFQLESNGKTKDVQILFVYENGRIHSMRFTSQ | 0.933 |
| DEEHLLSRLAKEFWEDWKQGDPNKASKQADKDVHVQIGDKEYHGREHLERLFKEVKKDVDHNTSRITDLKVDENHIDLKVSFSMNVNGQNITMVVDVKMRIVNGHAKAVDIKYK | 1.37 |
| DEEHMEHFREVMEQNDPDELNELVDPNARLVIGDKKYHGRDTVVKLIKRFWSKADHNRLRSLTIRNGRASWRMQATVNGQRLDFTVEAVFHNGRLKTMRFKFRDRSQVDHFRRLLQ | 1.74 |
| DEEHMQELAEELVKVMKRGDFKRYLDLASENAEVTYGEKSVRGREDLHKMQEELEKKVDHIHMKDFRVSGNQIHLFFVVHHDGRSREVVVTIEYHNGRITSVTYDEK | -0.075 |
| DEEHNERVAEEINRIMRDGDEERFEEMVDEDVKLQVGDKTWSGREEARKWQHEMWNSVDHVHIQDFEVSGDEIVIHFQLEHNGRREQAVVIVRFSNGRIKMMTIETQ | 1.41 |
| DEEHNKEVMENIITGNSDEMRKMVDPNAQLEIGDKRYHGRDQIDTFEHLMRDRVDNLEVKRYDLQGDKVHVDYVFVVNGKHARVRVSFSVKNGRFTQIRIEVTDEEVEKILREVQK | 1.17 |
| DEEHNQRLAERVAKVVQSGDEEEFEKQADPNVKVVYGDKTYHGNSEAMNAIKQIRKQADTVSVQSVDVHGDTARIQMRFDVNGKDRIVKVTVQVDNGRVVEVRFHET | 1.12 |
| DEEHQHSLARTLATALRTGDPEKMKDLADKDVKVVVGDKHIKGRKDAKKWAKDWRDRYDHAQVDDVNVQGENVRIVMNVEVDGHNVVVVMTAIIDGDQVKNVKVTARNEEQEKKMKK | -0.268 |
| DEEHQKEVLEHMTTNDPQFLRDLADEDVRVNVGDKEVKGREEFRRVLEHELRRIDRIQVKRVHVEGEKFKIDRKVTFDGKTLDYEVNFTIHNGRLKQMRVQARSEDLEEKMKELHG | 0.36 |
| DEEHQKHFEQFVKAMETGDEERLAQLVDKDVEISYGDKTIHGREELRKRVREIKEELRLTMDFKRITVRGDKVQANFKASMNHNGQPVSFKAHVTVTAHNGTIKSVSLSNHK | 1.1 |
| DEEHQKIAKEALEQIQTGDEDEIKRQFDPNAKLQVGDQSVHGRETAAKFVRDRRRQMRIHLDDVDVKAKNGHVRLMMDVEVDHNGHPTKHRQVMIVKIHNGQIKKMTVNERD | -0.028 |
| DEEHQKKMAEDFVKALERGDKDQFHSLFDENAKMQYGDKTVHGREDVKRWVEHVKERVDHLKVDKIEVSGNKVVLKMVINVDGQRLDMVITIHLHNGHIQSAEARVTDPDQERKANS | 1.26 |
| DEEHRAKTAQDDIRRINQNGDPDQMHRLADKDARIQIGDTFLHGREQIKEQMERDNKKFDHQQVEIKKVEVRGDKVRIVAEIKADFNGDNKTTRFVIYLTVKNGRVKMKKVTDG | -0.194 |
| DEEHREDSIRKVFEVLQTGDPKRFRENVDKNAKARVGDREVRGTKAADTFAHNIVKRADHVRIRRVHVHNGVVVVTEQQTVNGKEVIMVVFMEMNNGKMKLVEVNPEQLKELEG | -0.394 |
| DEEHVDQLLRKIFEILRNGDEKKLQDNFDPNVKATYGDRDITGMHSIAKTLAELFQRADHVNLRSMEVNGDKMRMQVSVQVDGRRATLEVNMRQHNGKVKELNLDPRRIKQFES | -0.169 |
| DEEHVDRVVKVLQHNDEEQFKRNAPPDARINIGDKQYRGREDAVEALSELWHRADHIRLHDITVRGNKIEMDMVFVVNGQHVRVVLDVEMRNGKVEQIDAHVTDEKDEENLQRAMD | 0.393 |
| DEEHVKKIIKKVADDLQRGDEDNLKHLMDKDVRVEIGDKEVRGKDEAAKELAKFLSRADHFQVDHVDVKGNNARIHVLVNINGRERRVTLILTMHNGRLKNVRFDPENEQTLRN | 1.18 |
| DEEHVKRMATTFAKQMRHNNPDDIMKQMDKNVQLRYGDKEVEGDENVRRRLKTLHDQVDHVEVKDYTAHGNSIRIVVRLEVNGKTANFVLIVIVENGRVLKANIDPKALDSYEK | 0.253 |
| DEEHVRRQAKQVNDILTTGDENKMLEMAPPDAKLEYGDRHVTGREHIRRMVHEQKKQIDDFKIDTYSVSGNEVRVRFVARVNGQEADFEITIVFKNGRIHEIKVDPDALQQMRK | 0.256 |
| DEEHWRKIAEDFMHALRTGDPRTLRKLMDEDVQYVYGDQRVTGHEEAANRFHELRQKVDHVTVKHIEVQGNKVVIDVVMQVNGKEARMTIVIVFENGRAKVLTFDPEQIKKLEG | 1.23 |
| DEEIEDMIRKLIHAIRSGDEKKIKDNFDKDVDVDVGDKTLHGREHLTKRIAETRRQLKVRITSLHVHVRGEQVRVQVTMERTVNGRPQRHHNVFELQVHNGRVKRVSVKSDG | 1.08 |
| DEEIERRVENRLKALEEGDEDKVRDNVDPNVRIHVGDKVWHGREHARDFARQQKEHARRKVDEYSVRVNNGKLSVKQRFKEDRNGQPREDHQQYSADIHNGTLKDMTVTKDG | 0.608 |
